Changes are numbered by the printed parent chain. “And” between values parts separate entries of the source, which are not always exact repeats. Equal values may be shown once.
T1: human IL-1α (human, UniProt P01583 113-271)
T1 sequence (looked up): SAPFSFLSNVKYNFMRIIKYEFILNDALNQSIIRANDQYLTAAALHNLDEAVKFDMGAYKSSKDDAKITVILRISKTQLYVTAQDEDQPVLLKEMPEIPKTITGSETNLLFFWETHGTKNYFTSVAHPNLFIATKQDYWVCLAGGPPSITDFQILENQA

T2: human IL-1α (human, UniProt P01583 113-271)
T2 sequence (looked up): T1 sequence (looked up)

B1: ABT1-95-13 (other)
VL: DIQMTQSPSSLSASVGDRVTITCRASQPIVRNLRWYQQKPGKAPKLLIYSSSYLERGVPSRFSGSGSGTDFTLTISSLQPEDFATYHCQQGYRWPVTFGQGTKVEIKR
notes: VK dAb
B2: ABT1-95-11 (other)
VL: B1 VL with V30Q, R31G, K42I, Q79H, F83L
notes: VK dAb
B3: ABT1-95-3 (other)
VL: B1 VL with V30H, R31G, E55Q, R56S
notes: VK dAb
B4: ABT1-95-8 (other)
VL: B1 VL with V30Q, R31G
notes: VK dAb
B5: ABT1-95-14 (other)
VL: B1 VL with R31K
notes: VK dAb
B6: ABT1-95-6 (other)
VL: B1 VL with V30Q, R31G, R56S
notes: VK dAb
B7: ABT1-95-4 (other)
VL: B1 VL with E55Q, R56S
notes: VK dAb
B8: ABT1-95-12 (other)
VL: B1 VL with V30H, R31G, R56S, G57W
notes: VK dAb
B9: ABT1-95-9 (other)
VL: B1 VL with V30Q, R31G, Q79H
notes: VK dAb
B10: ABT1-95-10 (other)
VL: B1 VL with V30Q, R31G, Q79H, F83L
notes: VK dAb
B11: ABT2-108-521/ABT1-122 hu IgG1/K wt (bispecific antibody, V domains shown)
VH: EVQLLESGGGLVQPGGSLRLSCAASGFTFAEYTMMWVRQAPGKGLEWVSRIGQDGKNTYYADSVKGRFTISRDNSKNTLYLQMNSLRAEDTAVYYCAKYTGRILGHHLFDYWGQGTLVTVSS
VL: DIQMTQSPSSLSASVGDRVTITCRASQPIWTELNWYQQKPGKAPKLLIYGSSSLQSGVPRFSGSGSGTDFTLTISSLQPEDFATYYCQQFAYFPATFGQGTKVEIKR
B12: ABT2-65-166/ABT1-95-A5 hu IgG1mut 234, 235/K (bispecific antibody, V domains shown)
VH: EVQLLESGGGLVQPGGSLRLSCAASGFTFEDYQMGWVRQAPGKGLEWVSSISAMGGRTYYADSVKGRFTISRDNSKNTLYLQMNSLRAEDTAVYYCAQNLVRLGRSRWMFDYWGQGTLVTVSS
VL: B1 VL with Q27R, P28T, I29P, S51R, Y53F, R56P, Q89L, V96P
B13: ABT1-95-15 (other)
VL: B1 VL with R56P
notes: VK dAb
B14: Fab ABT1-122/ABT2-108 (Fab, V domains shown)
VH: EVQLLESGGGLVQPGGSLRLSCAASGFTFAEYTMMWVRQAPGKGLEWVSRIGQDGKNTYYADSVKGRFTISRDNSKNTLYLQMNSLRAEDTAVYYCAKYTGRVGVHHLFDYWGQGTLVTSS
VL: B11 VL
B15: Fab ABT1-141/ABT2-108 (Fab, V domains shown)
VH: B14 VH
VL: DIQMTQSPSSLSASVGDRVTITCRASQWIQKQLAWYQQKPGKAPKLLIYSSSYLQSGVPRFSGSGSGTDFTLTISSLQPEDFATYYCQQHLRVPFTFGQGTKVEIKR
B16: Fab ABT1-122/ABT2-65 (Fab, V domains shown)
VH: B12 VH with G56N, N74D, Q98K, L103T, G104Q, R105S, S106K, R107M
VL: B11 VL
B17: Fab ABT1-6-23/ABT2-46 (Fab, V domains shown)
VH: EVQLLESGGGLVQPGGSLRLSCAASGFTFVRYDMAWVRQAPGKGLEWVSSIYKSGALTSYDSVKGRFTISRDNSKNTLYLQMNSLRAEDTAVYYCAKGWASFDYWGQGTLVTVSS
VL: DIQMTQSPSSLSASVGDRVTITCRASQSIIEWLSWYQQKPGKAPKLLIYRTSVLQSGVPSRFSGSGSGTDFTLTISSLQPEDFATYYCQQNEFWPFTFGQGTKVEIKR
B18: Fab ABT1-98/ABT2-76 (Fab, V domains shown)
VH: EVQLLESGGGLVQPGGSLRLSCAASGFTFDGYIMSWVRQAPGKGLEWVSTISPLGSVTYYADSVKGRFTISRDNSKNTLYLQMNSLRAEDTAVYYCAKKGPWFDYWGQGTLVTVSS
VL: B17 VL with I30D, E31R, S34A, T51G, V53I, N91V, E92A, F96P
B19: Fab ABT1-6-23/ABT2-13 (Fab, V domains shown)
V domain 1: B17 VH
V domain 2: EVQLLESGGGLVQPGGSLRLSCAASGFTFRDYVMYWARQAPGKGLEWVSRIDPMGSSTYYADSVKGRFTISRDNSKNTLYLQMNSLRAEDTAVYYCAKPEGNFDYWGQGTLVTVSS
B20: Fab ABT1-96/ABT2-42 (Fab, V domains shown)
VH: EVQLLESGGGLVQPGGSLRLSCAASGFTFNQYNMFWVRQAPGKGLEWVSVISGSGRFTYADSVKGRFTISRDNSKNTLYLQMNSLRAEDTAVYYCAKGWWRRDPPFDYWGQGTLVTVSS
VL: DIQMTQSPSSLSASVGDRVTITCRASQYIEKWLTWYQQKPGKAPTLLIYRGSLLQSGVPRFSGSGSGTDFTLTISSLQPEDFATYYCQQTEYWPFTFGQGTKVEIKR
B21: Fab ABT1-96/ABT2-13 (Fab, V domains shown)
V domain 1: B20 VH
V domain 2: B19 V domain 2
B22: Fab ABT1-96/ABT2-46 (Fab, V domains shown)
VH: B20 VH
VL: B17 VL
B23: Fab ABT1-95/ABT2-13 (Fab, V domains shown)
VH: B19 V domain 2
VL: B1 VL with V30H, R31G, S50N, S51I, Y53N, E55Q, R56S, H87Y
B24: Fab ABT1-141/ABT2-65 (Fab, V domains shown)
VH: B12 VH with G56N, N74D, Q98K, L103T, G104Q, R105S, S106K, R107M
VL: B15 VL
B25: ABT1-95-A3 (other)
VL: B1 VL with Q27K, I29G, L33M, S51V, R56P, Q89L, V96P
B26: ABT1-95-A5 (other)
VL: B1 VL with Q27R, P28T, I29P, S51R, Y53F, R56P, Q89L, V96P

biological target: T1, human IL-1α; experiment: cell-based or functional assay

ND50	Binder
0.12 nM	B1
0.3 nM	B2
80 nM	B3
1 nM	B4
0.25 nM	B5
1 nM	B6
2 nM	B7

biological target: T1, human IL-1α; experiment: Table 62 IC50; RBA presumed

IC50	Binder
0.3 nM	B1
0.9 nM	B2
0.8 nM	B8
4 nM	B3
0.8 nM	B4
0.3 nM	B5
0.8 nM	B6
0.8 nM	B9
0.7 nM	B7
0.8 nM	B10

biological target: T3, human IL-1β (human, UniProt P01584 117-269); experiment: cell-based or functional assay

MRC5 IL-1β	Binder
1 nM	B11
0.197 nM	B12

biological target: T2, human IL-1α; experiment: cell-based or functional assay

MRC5 IL-1α	Binder
1000 nM	B11
0.014 nM	B12

biological target: T1, human IL-1α; experiment: Table 62 KD; BIAcore presumed

Kd	Binder
0.4 nM	B13
0.9 nM	B1
1.1 nM	B2
0.9 nM	B8
7 nM	B3
2.1 nM	B4
1.2 nM	B5
2.1 nM	B6
1 nM	B9
1.5 nM	B7
0.9 nM	B10

biological target: T3, human IL-1β; experiment: cell-based or functional assay; remark: another data set of the same source

Fab IL-1β ND10	Binder
50 nM	B14
15 nM	B15
1500 nM	B16
150 nM	B17
1500 nM	B18
> 500 nM	B19
10 nM	B20
80 nM	B21
400 nM	B22
400 nM	B23
300 nM	B24

biological target: T2, human IL-1α; experiment: cell-based or functional assay; remark: another data set of the same source

Fab IL-1α ND10	Binder
3 nM	B14
10 nM	B15
40 nM	B16
4 nM	B17
100 nM	B18
40 nM	B19
3 nM	B20
0.9 nM	B21
6 nM	B22
200 nM	B23
80 nM	B24

biological target: T2, human IL-1α; experiment: cell-based or functional assay; remark: another data set of the same source

MRC5 ND50	Binder
11 pM	B25
16 pM	B26

biological target: T3, human IL-1β; experiment: cell-based or functional assay; remark: another data set of the same source

IL-1β IC50	Binder
0.2 nM and 0.4 nM	B11
0.145 nM	B12

biological target: T2, human IL-1α; experiment: cell-based or functional assay; remark: another data set of the same source

IL-1α IC50	Binder
1000 nM	B11
0.015 nM	B12
